The source of these data is patent US20250002577A1 (ONCORESPONSE, published 2025).

One may read the EC50 as the concentration at which the effect is half-maximal.

The target in test [1] is T1, human LILRB1 on cells (human, UniProt Q8NHL6 24-650).
T1 construct: whole, on cells; also called hLILRB1; LILRB1-expressing 721.221 cells
Kind of test: flow cytometry, HEK293-6E transfectants. The protocol: (§1) To determine that the parent chimera anti LILRB2/1 antibody specifically binds to LILRB2 and LILRB1 and not to other LILRB and LILRA family members, a cross-reactivity assay was performed. Cross-reactivity was assessed by antibody binding to transiently transfected HEK293-6E cells by flow cytometry. Binding was evaluated to HEK293-6E cells transiently transfected with human LILRB-1, -2, -3, -4, and 5 plasmids (Origene, Nos. RC219949, RC217935, RC211228, RC220932, RC206516) or to cells transiently transfected with human LILRA-1, -2, -4, -5, and -6 plasmids (Origene, Nos. RC210808, RC205626, RC220452, RC212310 RC212965). […] At a concentration of 1 μg/mL, no binding of B21A1 or the humanized variants to LILRB-3, -4, or -5 was observed (Table 7). Additionally, no binding to LILRA-1, -2, -4, -5, or -6 was observed, confirming the specificity of B21A1 and its humanized variants to LILRB1 and LILRB2 (Table 8).

Test [2] deals with T2, human LILRB2 on cells (human, UniProt Q8N423 22-597).
T2 construct: whole, on cells; also called hLILRB2; LILRB2-HEK293T
Kind of test: flow cytometry, HEK293-6E transfectants. Here is the method:
as §1
For orientation: Flow cytometry measures light scatter and fluorescence of single cells or particles in a stream.

The target of test [3] is T3, human LILRB3 on HEK293-6E cells (human, UniProt O75022 24-631).
T3 construct: whole, on cells; also called hLILRB3
Kind of test: flow cytometry, HEK293-6E transfectants. Here is the method:
as §1

Test [4] addresses T4, human LILRB4 on HEK293-6E cells (human, UniProt Q8NHJ6 22-448).
T4 construct: whole, on cells; also called hLILRB4
The test is described as follows: flow cytometry, HEK293-6E transfectants. Here is the method:
as §1

For test [5], the target named is T5, human LILRB5 on HEK293-6E cells (human, UniProt O75023 24-590).
T5 construct: whole, on cells; also called hLILRB5
Kind of test: flow cytometry, HEK293-6E transfectants. Here is the method: as §1

Test [6] deals with T6, human LILRA1 on HEK293-6E cells (human, UniProt O75019 17-489).
T6 construct: whole, on cells; also called hLILRA1
The test is described as follows: flow cytometry, HEK293-6E transfectants. The protocol:
as §1

Test [7] addresses T7, human LILRA2 on HEK293-6E cells (human, UniProt Q8N149 24-483).
T7 construct: whole, on cells; also called hLILRA2
Kind of test: flow cytometry, HEK293-6E transfectants. The protocol: as §1

Test [8] deals with T8, human LILRA4 on HEK293-6E cells (human, UniProt P59901 24-499).
T8 construct: whole, on cells; also called hLILRA4
The test is described as follows: flow cytometry, HEK293-6E transfectants. The protocol:
as §1

The target of test [9] is T9, human LILRA5 on HEK293-6E cells (human, UniProt A6NI73 42-299).
T9 construct: whole, on cells; also called hLILRA5
The test is described as follows: flow cytometry, HEK293-6E transfectants. The protocol:
as §1

For test [10], the target named is T10, human LILRA6 on HEK293-6E cells (human, UniProt Q6PI73 24-481).
T10 construct: whole, on cells; also called hLILRA6
The test is described as follows: flow cytometry, HEK293-6E transfectants. Here is the method:
as §1

The target in test [11] is T11, recombinant human LILRB1-His (human, UniProt Q8NHL6 24-458).
T11 construct: Bought protein; also called LILRB1 protein
Kind of test: MSD ELISA, coated antigen, purified IgG1. Here is the method:
(§2) Recombinant human and cynomolgus LILRB1 proteins (R&D Systems, No. 8989-T2-050; ACROBiosystems, No. CDJ-C52H3) and recombinant human and cynomolgus LILRB2 proteins (ACROBiosystems, No. LI2-H5220; No. L12-C52H3) were diluted in PBS to 4 μg/mL and added to a multi-array 384-well high-binding plates (MSD, No. L21XA4) at 10 μL/well and incubated at 4° C. overnight. The plates were washed several times with Wash Buffer (0.05% Tween® 20 in PBS), using a microplate washer and then blocked with 70 μL/well of 5% BSA in PBS for 1 hour (h) at room temperature (RT) with shaking at 700 rpm. After blocking, 20 μL/well of anti-LILRB2/LILRB1 antibodies or isotype control were added to the plates, and the plates were sealed and incubated for 2 h at RT with shaking at 700 rpm. After primary antibody binding, plates were washed five times with 70 μL/well of Wash Buffer (0.05% Tween® 20 in PBS) using a microplate washer. Secondary detection antibody (SULFO-TAG™-labeled goat anti-human IgG antibody (MSD, No. R32AJ-1)) was diluted to 4 μg/mL in assay diluent (1% BSA in PBS) and 10 μL/well was added to plates and incubated at RT protected from light for 1 h, with shaking at 700 rpm. Following incubation, plates were washed five times with Wash Buffer, using a microplate washer. After removal of the final wash, 35 μL/well of MSD Gold Read Buffer B (MSD, No. R60AM-4) was added to all wells using a Multidrop combo washer/dispenser, and plates were read using MESO Sector 600MM instrument (MSD) within 5 minutes (min) after addition of Read Buffer. Signals as counts per minute (cpm) were recorded. EC₅₀ values were calculated using GraphPad Prism based on log concentration of the primary antibodies versus cpm values.

For test [12], the target named is T12, recombinant human LILRB2-His (human, UniProt Q8N423 22-461, limits assumed).
T12 construct: Bought protein; also called LILRB2 protein
Kind of test: MSD ELISA, coated antigen, purified IgG1. Here is the method: as §2
On the technique in general: An ELISA detects its analyte on a solid surface through an enzyme-linked reagent.

Test [13] addresses T2, human LILRB2 on cells. The test is described as follows: flow cytometry, LILRB2-HEK293T cells, AF647-labelled antibody. Here is the method:
While LILRB2 expression is mostly restricted to myeloid cells, LILRB1 has a broader expression on immune cell subsets, including B cells, T cells and NK cells.
Frozen cells were removed from storage in vapor phase liquid nitrogen and thawed by gentle swirling in a water bath at 37° C., then resuspended in DMEM media with 10% FBS. Cells were placed in a 15 mL conical tube and centrifuged at 300×g for 5 min, then supernatant was removed. Cells were resuspended in DMEM+10% FBS at a cell density of 2×10⁵ cells/mL in a T75 flask for culturing, and incubated at 37° C., 5% CO₂ for 3 days before passaging. Cells were passaged when the cell density reached 1×10⁶ cell/mL. On the day of the assay, cells were centrifuged, then supernatant was removed. Cells were resuspended in Blocking Buffer B (FACS Buffer containing 10% FBS and 0.5 mg/mL human IgG1 (Athens Research, No. 16-16-090707-1M)+0.05% NaN₃, 5% (w/v)) in a 15 mL conical tube, then incubated at 4° C. for 30 min. […] Cells were incubated with antibodies at 4° C. for 1 h. Cells were washed twice in FACS Buffer (PBS containing 2 mM EDTA+1% FBS+0.05% NaN₃) and then stained with for 10 min with Zombie Violet™ fixable viability dye (BioLegend, No. 423114) at RT, washed with FACS Buffer and resuspend in 75 μL of FACS Buffer for acquisition on a BD FACSymphony™ or BD FACSCanto™ II flow cytometer (BD Biosciences), as described in Example 6.

T12 sequence (Q8N423 22-461 limits assumed): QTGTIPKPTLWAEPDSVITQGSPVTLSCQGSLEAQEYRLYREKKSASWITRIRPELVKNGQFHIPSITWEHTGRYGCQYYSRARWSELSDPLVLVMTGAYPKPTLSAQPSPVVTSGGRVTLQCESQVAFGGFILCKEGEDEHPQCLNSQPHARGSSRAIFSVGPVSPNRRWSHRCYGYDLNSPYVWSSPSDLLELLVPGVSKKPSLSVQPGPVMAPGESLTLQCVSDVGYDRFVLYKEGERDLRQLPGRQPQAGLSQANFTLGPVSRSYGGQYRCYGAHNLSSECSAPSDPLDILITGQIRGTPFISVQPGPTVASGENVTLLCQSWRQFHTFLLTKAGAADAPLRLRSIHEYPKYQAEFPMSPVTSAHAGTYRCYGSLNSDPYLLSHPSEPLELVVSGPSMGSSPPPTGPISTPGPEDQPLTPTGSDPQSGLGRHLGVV
T8 sequence (P59901 24-499): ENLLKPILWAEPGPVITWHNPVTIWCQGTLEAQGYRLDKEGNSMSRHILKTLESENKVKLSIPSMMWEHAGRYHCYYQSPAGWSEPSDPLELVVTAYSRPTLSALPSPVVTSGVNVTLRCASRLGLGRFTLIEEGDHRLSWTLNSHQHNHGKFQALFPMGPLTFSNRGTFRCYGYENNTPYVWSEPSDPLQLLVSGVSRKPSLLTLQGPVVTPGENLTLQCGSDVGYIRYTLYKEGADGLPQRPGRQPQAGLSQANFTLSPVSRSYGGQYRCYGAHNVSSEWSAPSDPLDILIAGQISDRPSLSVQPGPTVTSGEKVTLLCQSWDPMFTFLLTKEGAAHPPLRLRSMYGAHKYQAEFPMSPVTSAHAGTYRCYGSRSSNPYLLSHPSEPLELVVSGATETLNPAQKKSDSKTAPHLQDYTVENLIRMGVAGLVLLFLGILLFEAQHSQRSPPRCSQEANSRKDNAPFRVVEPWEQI
T6 sequence (O75019 17-489): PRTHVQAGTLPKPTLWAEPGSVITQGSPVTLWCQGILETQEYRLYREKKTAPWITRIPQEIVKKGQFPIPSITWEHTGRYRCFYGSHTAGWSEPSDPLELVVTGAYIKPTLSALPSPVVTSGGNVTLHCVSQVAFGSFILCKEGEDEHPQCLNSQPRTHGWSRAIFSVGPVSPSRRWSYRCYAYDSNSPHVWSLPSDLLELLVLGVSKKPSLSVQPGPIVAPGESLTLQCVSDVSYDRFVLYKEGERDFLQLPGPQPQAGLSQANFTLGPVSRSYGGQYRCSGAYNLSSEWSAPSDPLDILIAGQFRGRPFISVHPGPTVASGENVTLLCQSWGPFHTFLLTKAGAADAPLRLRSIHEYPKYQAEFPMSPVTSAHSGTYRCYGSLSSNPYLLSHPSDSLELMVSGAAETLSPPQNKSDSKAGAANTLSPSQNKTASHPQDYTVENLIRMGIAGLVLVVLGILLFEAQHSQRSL
T3 sequence (O75022 24-631): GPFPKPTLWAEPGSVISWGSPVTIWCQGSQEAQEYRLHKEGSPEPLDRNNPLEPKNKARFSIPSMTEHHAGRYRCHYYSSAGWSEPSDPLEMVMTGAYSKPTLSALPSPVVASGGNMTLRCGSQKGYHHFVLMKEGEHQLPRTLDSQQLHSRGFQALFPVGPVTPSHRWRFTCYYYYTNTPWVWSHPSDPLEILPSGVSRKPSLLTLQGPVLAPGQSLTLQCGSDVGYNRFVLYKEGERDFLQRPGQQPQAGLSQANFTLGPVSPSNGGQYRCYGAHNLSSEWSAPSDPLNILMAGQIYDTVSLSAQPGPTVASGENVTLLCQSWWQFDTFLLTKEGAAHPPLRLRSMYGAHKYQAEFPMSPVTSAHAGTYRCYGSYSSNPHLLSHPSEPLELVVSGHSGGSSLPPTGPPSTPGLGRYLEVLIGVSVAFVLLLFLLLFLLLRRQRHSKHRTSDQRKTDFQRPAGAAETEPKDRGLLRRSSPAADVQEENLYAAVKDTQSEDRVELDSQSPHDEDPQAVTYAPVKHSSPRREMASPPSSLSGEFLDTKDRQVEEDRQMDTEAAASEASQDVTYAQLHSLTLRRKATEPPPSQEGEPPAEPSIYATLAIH
T11 sequence (Q8NHL6 24-458 limits assumed): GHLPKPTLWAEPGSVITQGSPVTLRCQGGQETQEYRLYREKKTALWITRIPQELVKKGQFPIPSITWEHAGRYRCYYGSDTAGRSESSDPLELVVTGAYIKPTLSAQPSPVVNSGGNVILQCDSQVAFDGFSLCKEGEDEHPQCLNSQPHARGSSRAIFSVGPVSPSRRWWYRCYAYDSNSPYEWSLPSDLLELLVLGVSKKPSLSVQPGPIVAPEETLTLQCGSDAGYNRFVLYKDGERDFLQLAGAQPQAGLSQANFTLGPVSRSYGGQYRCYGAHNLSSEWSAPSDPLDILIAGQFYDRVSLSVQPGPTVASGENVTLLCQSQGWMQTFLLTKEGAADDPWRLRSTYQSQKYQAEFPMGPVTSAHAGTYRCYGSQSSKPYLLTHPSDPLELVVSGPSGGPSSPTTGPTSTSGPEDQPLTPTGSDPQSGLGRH
T2 sequence (Q8N423 22-597): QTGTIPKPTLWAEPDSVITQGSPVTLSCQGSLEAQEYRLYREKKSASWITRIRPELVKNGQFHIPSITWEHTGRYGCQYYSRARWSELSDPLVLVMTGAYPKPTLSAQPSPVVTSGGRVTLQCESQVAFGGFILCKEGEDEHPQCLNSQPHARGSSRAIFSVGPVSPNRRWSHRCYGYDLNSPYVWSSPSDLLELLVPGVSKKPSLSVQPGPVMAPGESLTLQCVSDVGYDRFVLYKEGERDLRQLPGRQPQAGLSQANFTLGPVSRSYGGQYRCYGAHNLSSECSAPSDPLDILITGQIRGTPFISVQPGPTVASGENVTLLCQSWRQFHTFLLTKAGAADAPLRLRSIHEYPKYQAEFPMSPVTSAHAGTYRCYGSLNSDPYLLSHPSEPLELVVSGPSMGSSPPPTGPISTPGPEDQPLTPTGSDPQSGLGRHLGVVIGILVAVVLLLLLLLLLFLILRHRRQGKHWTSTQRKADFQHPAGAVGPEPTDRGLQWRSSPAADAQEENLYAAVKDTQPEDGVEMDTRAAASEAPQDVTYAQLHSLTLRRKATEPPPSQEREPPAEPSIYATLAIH
T5 sequence (O75023 24-590): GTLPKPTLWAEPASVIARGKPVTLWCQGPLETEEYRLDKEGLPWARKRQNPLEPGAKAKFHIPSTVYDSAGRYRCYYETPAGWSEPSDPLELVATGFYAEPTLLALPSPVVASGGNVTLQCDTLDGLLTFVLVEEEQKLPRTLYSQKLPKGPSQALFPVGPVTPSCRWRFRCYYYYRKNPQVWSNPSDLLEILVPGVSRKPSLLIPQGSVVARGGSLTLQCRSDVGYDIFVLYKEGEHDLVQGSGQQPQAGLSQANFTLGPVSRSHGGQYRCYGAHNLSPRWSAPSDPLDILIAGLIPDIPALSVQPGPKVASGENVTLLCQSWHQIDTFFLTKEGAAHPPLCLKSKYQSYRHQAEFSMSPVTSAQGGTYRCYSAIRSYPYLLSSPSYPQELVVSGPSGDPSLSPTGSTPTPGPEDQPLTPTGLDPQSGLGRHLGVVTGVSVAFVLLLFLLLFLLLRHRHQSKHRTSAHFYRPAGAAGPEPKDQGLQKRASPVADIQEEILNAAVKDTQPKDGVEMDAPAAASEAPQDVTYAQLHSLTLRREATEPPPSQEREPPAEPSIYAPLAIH
T1 sequence (Q8NHL6 24-650): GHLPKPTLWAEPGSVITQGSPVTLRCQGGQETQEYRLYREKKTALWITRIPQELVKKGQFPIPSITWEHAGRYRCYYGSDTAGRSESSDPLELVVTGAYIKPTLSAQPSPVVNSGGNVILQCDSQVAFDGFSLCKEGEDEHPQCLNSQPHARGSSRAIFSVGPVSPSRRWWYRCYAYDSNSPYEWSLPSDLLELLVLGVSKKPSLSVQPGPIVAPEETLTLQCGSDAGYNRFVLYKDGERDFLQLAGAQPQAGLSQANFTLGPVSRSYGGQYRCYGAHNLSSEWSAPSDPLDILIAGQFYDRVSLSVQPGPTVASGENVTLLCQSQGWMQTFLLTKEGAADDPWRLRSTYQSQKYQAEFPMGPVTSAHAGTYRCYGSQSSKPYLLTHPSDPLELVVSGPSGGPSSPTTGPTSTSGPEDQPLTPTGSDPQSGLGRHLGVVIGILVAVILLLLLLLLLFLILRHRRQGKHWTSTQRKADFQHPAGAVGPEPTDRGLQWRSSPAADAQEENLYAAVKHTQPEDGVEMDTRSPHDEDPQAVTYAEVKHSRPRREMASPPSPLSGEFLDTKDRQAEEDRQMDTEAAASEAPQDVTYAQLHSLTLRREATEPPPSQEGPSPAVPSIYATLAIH
T9 sequence (A6NI73 42-299): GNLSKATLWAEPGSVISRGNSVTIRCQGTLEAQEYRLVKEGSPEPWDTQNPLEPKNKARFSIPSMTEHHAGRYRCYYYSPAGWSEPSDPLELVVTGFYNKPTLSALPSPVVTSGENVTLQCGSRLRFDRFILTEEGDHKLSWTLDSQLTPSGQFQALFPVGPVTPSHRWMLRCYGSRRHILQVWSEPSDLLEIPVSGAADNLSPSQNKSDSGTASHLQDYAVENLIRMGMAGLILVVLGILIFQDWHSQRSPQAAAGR
T7 sequence (Q8N149 24-483): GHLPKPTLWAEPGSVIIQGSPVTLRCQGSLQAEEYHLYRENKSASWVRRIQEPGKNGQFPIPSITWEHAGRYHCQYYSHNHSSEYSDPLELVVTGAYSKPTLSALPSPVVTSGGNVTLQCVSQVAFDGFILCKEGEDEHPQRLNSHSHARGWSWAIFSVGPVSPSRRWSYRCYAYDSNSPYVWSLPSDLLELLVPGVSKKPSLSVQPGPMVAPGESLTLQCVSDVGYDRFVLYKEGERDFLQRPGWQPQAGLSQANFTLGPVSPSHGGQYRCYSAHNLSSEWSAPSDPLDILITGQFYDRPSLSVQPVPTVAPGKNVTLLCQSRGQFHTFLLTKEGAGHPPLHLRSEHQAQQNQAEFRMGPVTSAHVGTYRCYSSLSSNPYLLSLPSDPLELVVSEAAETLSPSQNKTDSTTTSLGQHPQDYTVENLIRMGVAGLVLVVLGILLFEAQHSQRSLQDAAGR

B1: B21H1-23 (antibody, human IgG1, kappa)
heavy: not shown
light: DIVMTQSPSSVSASVGDRVTITCQASGNIYSFLAWYQQKPGKAPKLLIYTASNLETGVPSRFSGSGSGTDFTLTISSLQPEDFATYYCLGGLYSSDVSYAFGGGTKVVIKRTVAAPSVFIFPPSDEQLKSGTASVVCLLNNFYPREAKVQWKVDNALQSGNSQESVTEQDSKDSTYSLSSTLTLSKADYEKHKVYACEVTHQGLSSPVTKSFNRGEC
notes: humanized IgG1/kappa, VH2+VL3
Take B1: the MFI in [1] was 1060 MFI; in [2], 5430 MFI; in test [3] it was 96.2 MFI; in test [4], 30.1 MFI; in [5], 92 MFI; in test [6] it was 210 MFI. Further, the MFI is 27.5 MFI in test [7], 136 MFI in test [8], 75.3 MFI in test [9] and 140 MFI in test [10]. For the same molecule, the binding result in [3], in [4], in test [5], in test [6], in [7] and in [8] was “no binding (tested: 1 µg/mL)” each time. Moreover, the binding result in test [9] and in test [10] was “no binding (tested: 1 µg/mL)” throughout. In addition, the EC50 is 8.64 ng/mL in test [11], 30.7 ng/mL in test [12] and 1.63 ng/mL in [13].

B2: B21H1-13 (antibody, human IgG1, kappa)
heavy: not shown
light: DIVMTQSPSSVSASVGDRVTITCQASGNIYSFLAWYQQKPGKAPKLLIYTASNLETGVPSRFSGSGSGTDFTLTISSLQPEDFATYYCLGGLYSSDVSYAFGGGTKVVIKRTVAAPSVFIFPPSDEQLKSGTASVVCLLNNFYPREAKVQWKVDNALQSGNSQESVTEQDSKDSTYSLSSTLTLSKADYEKHKVYACEVTHQGLSSPVTKSFNRGEC
notes: humanized IgG1/kappa, VH1+VL3
Turning to B2, the MFI in [1] came out at 1000 MFI; in [2], 5370 MFI; in test [3] it was 84.7 MFI; in test [4], 29.1 MFI; in test [5], 89.8 MFI; in test [6], 201 MFI. In addition, the MFI is 25.8 MFI in test [7], 130 MFI in test [8], 75.7 MFI in [9] and 142 MFI in test [10]. For the same molecule, the binding result in test [3], in [4], in [5], in test [6], in test [7] and in [8] was “no binding (tested: 1 µg/mL)” each time. Also, the binding result in [9] and in test [10] was “no binding (tested: 1 µg/mL)” throughout. The EC50 in test [11] is 5.45 ng/mL; in test [12] it was 20.3 ng/mL; in [13] it was 2.23 ng/mL.

B3: B21H1-22 (antibody, human IgG1, kappa)
heavy: not shown
light: DIQMTQSPSSLSASVGDRVTITCQASGNIYSFLAWYQQKPGKVPKLLIYTASNLETGVPSRFSGSGSGTDYTLTISSLQSEDAATYYCLGGLYSSDVSYAFGGGTKVVIKRTVAAPSVFIFPPSDEQLKSGTASVVCLLNNFYPREAKVQWKVDNALQSGNSQESVTEQDSKDSTYSLSSTLTLSKADYEKHKVYACEVTHQGLSSPVTKSFNRGEC
notes: humanized IgG1/kappa, VH2+VL2
With B3, the MFI in [1] turned out to be 914 MFI; in test [2], 5590 MFI; in test [3], 90.1 MFI; in test [4], 29.9 MFI; in [5], 91.4 MFI; in [6], 295 MFI. Besides, the MFI is 27.6 MFI in test [7], 132 MFI in test [8], 76.7 MFI in test [9] and 140 MFI in test [10]. In addition, the binding result in [3], in [4], in test [5], in [6], in [7] and in [8] was “no binding (tested: 1 µg/mL)” throughout. In addition, the binding result in test [9] and in test [10] was “no binding (tested: 1 µg/mL)” throughout. For the same molecule, the half-maximal effective concentration (EC50) in [11] is 8.18 ng/mL; in test [12], 25.3 ng/mL; in test [13], 1.07 ng/mL.
